In the Human Domainome abundance scans (Beltran et al. 2025) one finds abundance fitness data, which are given here for 37 variants.

± gives the uncertainty stated by the source.

To fix the notation:
B1: Far upstream element-binding protein 1, residues 184 to 257; numbered along this chain, Q96AE4 (parent)
chain: GNAVQEIMIPASKAGLVIGKGGETIKQLQERAGVKMVMIQDGPQNTGADKPLRITGDPYKVQQAKEMVLELIRD

Variants of B1 are the subject of the data set. Put plainly: abundance fitness (aPCA) (normalised: wild type 0, dead -1); higher = more abundant; growth selection in yeast, the domain comes from the species named. Conditions: Homo sapiens.
Turning to GNAVQEIMIPASKAGLVIGKGGETIKQLQERAGVKMVMIQDNPQNTGADKPLRITGDPYKVQQAKEMVLELIRD, the abundance fitness was -0.059 ± 0.054.

In the case of GNAVQEIMIPASKAGLVIGKGGETIKQLQERAGVKMVMIQDAPQNTGADKPLRITGDPYKVQQAKEMVLELIRD, the abundance fitness was -0.028 ± 0.032.

Take GNAVQEIMIPASKAGLVIGKGGETIKQLQERAGVKMVMIQDWPQNTGADKPLRITGDPYKVQQAKEMVLELIRD: the abundance fitness is -0.33 ± 0.037.

Consider GNAVQEIMIPASKAGLVIGKGGETIKQLQERAGVKMVMIQDCPQNTGADKPLRITGDPYKVQQAKEMVLELIRD, for which the abundance fitness is -0.037 ± 0.04.

For the variant GNAVQEIMIPASKAGLVIGKGGETIKQLQERAGVKMVMIQDQPQNTGADKPLRITGDPYKVQQAKEMVLELIRD, the abundance fitness was -0.029 ± 0.042.

Regarding GNAVQEIMIPASKAGLVIGKGGETIKQLQERAGVKMVMIQDYPQNTGADKPLRITGDPYKVQQAKEMVLELIRD, the abundance fitness was 0.055 ± 0.061.

With GNAVQEIMIPASKAGLVIGKGGETIKQLQERAGVKMVMIQDDPQNTGADKPLRITGDPYKVQQAKEMVLELIRD, the abundance fitness is -0.069 ± 0.046.

For GNAVQEIMIPASKAGLVIGKGGETIKQLQERAGVKMVMIQDKPQNTGADKPLRITGDPYKVQQAKEMVLELIRD, the abundance fitness worked out at 0.049 ± 0.04.

Take GNAVQEIMIPASKAGLVIGKGGETIKQLQERAGVKMVMIQDRPQNTGADKPLRITGDPYKVQQAKEMVLELIRD: the abundance fitness is -0.022 ± 0.026.

Turning to GNAVQEIMIPASKAGLVIGKGGETIKQLQERAGVKMVMIQDFPQNTGADKPLRITGDPYKVQQAKEMVLELIRD, the abundance fitness is -0.078 ± 0.056.

On to GNAVQEIMIPASKAGLVIGKGGETIKQLQERAGVKMVMIQDHPQNTGADKPLRITGDPYKVQQAKEMVLELIRD, for which the abundance fitness was -0.082 ± 0.048.

Consider GNAVQEIMIPASKAGLVIGKGGETIKQLQERAGVKMVMIQDMPQNTGADKPLRITGDPYKVQQAKEMVLELIRD, for which the abundance fitness was -0.084 ± 0.04.

Take GNAVQEIMIPASKAGLVIGKGGETIKQLQERAGVKMVMIQDEPQNTGADKPLRITGDPYKVQQAKEMVLELIRD: the abundance fitness came out at 0.007 ± 0.033.

On to GNAVQEIMIPASKAGLVIGKGGETIKQLQERAGVKMVMIQDPPQNTGADKPLRITGDPYKVQQAKEMVLELIRD, for which the abundance fitness was -0.059 ± 0.035.

On to GNAVQEIMIPASKAGLVIGKGGETIKQLQERAGVKMVMIQDLPQNTGADKPLRITGDPYKVQQAKEMVLELIRD, for which the abundance fitness is -0.158 ± 0.032.

As to GNAVQEIMIPASKAGLVIGKGGETIKQLQERAGVKMVMIQDSPQNTGADKPLRITGDPYKVQQAKEMVLELIRD, the abundance fitness is 0.009 ± 0.031.

In the case of GNAVQEIMIPASKAGLVIGKGGETIKQLQERAGVKMVMIQDIPQNTGADKPLRITGDPYKVQQAKEMVLELIRD, the abundance fitness was -0.052 ± 0.054.

With GNAVQEIMIPASKAGLVIGKGGETIKQLQERAGVKMVMIQDGIQNTGADKPLRITGDPYKVQQAKEMVLELIRD, the abundance fitness was -0.011 ± 0.067.

In the case of GNAVQEIMIPASKAGLVIGKGGETIKQLQERAGVKMVMIQDGLQNTGADKPLRITGDPYKVQQAKEMVLELIRD, the abundance fitness was -0.053 ± 0.036.

As for GNAVQEIMIPASKAGLVIGKGGETIKQLQERAGVKMVMIQDGCQNTGADKPLRITGDPYKVQQAKEMVLELIRD, the abundance fitness is -0.049 ± 0.051.

With GNAVQEIMIPASKAGLVIGKGGETIKQLQERAGVKMVMIQDGDQNTGADKPLRITGDPYKVQQAKEMVLELIRD, the abundance fitness was -0.055 ± 0.05.

With GNAVQEIMIPASKAGLVIGKGGETIKQLQERAGVKMVMIQDGGQNTGADKPLRITGDPYKVQQAKEMVLELIRD, the abundance fitness turned out to be 0.05 ± 0.03.

Take GNAVQEIMIPASKAGLVIGKGGETIKQLQERAGVKMVMIQDGHQNTGADKPLRITGDPYKVQQAKEMVLELIRD: the abundance fitness worked out at 0.003 ± 0.063.

As to GNAVQEIMIPASKAGLVIGKGGETIKQLQERAGVKMVMIQDGYQNTGADKPLRITGDPYKVQQAKEMVLELIRD, the abundance fitness is -0.003 ± 0.054.

On to GNAVQEIMIPASKAGLVIGKGGETIKQLQERAGVKMVMIQDGNQNTGADKPLRITGDPYKVQQAKEMVLELIRD, for which the abundance fitness was -0.123 ± 0.063.

GNAVQEIMIPASKAGLVIGKGGETIKQLQERAGVKMVMIQDGFQNTGADKPLRITGDPYKVQQAKEMVLELIRD: the abundance fitness was -0.079 ± 0.054.

Take GNAVQEIMIPASKAGLVIGKGGETIKQLQERAGVKMVMIQDGWQNTGADKPLRITGDPYKVQQAKEMVLELIRD: the abundance fitness was -0.022 ± 0.042.

As for GNAVQEIMIPASKAGLVIGKGGETIKQLQERAGVKMVMIQDGMQNTGADKPLRITGDPYKVQQAKEMVLELIRD, the abundance fitness is -0.016 ± 0.044.

Turning to GNAVQEIMIPASKAGLVIGKGGETIKQLQERAGVKMVMIQDGAQNTGADKPLRITGDPYKVQQAKEMVLELIRD, the abundance fitness was found to be 0.023 ± 0.039.

GNAVQEIMIPASKAGLVIGKGGETIKQLQERAGVKMVMIQDGQQNTGADKPLRITGDPYKVQQAKEMVLELIRD: the abundance fitness was -0.057 ± 0.045.

For the variant GNAVQEIMIPASKAGLVIGKGGETIKQLQERAGVKMVMIQDGEQNTGADKPLRITGDPYKVQQAKEMVLELIRD, the abundance fitness was -0.01 ± 0.04.

With GNAVQEIMIPASKAGLVIGKGGETIKQLQERAGVKMVMIQDGKQNTGADKPLRITGDPYKVQQAKEMVLELIRD, the abundance fitness was determined as 0.064 ± 0.048.

Consider GNAVQEIMIPASKAGLVIGKGGETIKQLQERAGVKMVMIQDGTQNTGADKPLRITGDPYKVQQAKEMVLELIRD, for which the abundance fitness was -0.119 ± 0.044.

Turning to GNAVQEIMIPASKAGLVIGKGGETIKQLQERAGVKMVMIQDGRQNTGADKPLRITGDPYKVQQAKEMVLELIRD, the abundance fitness is -0.012 ± 0.03.

In the case of GNAVQEIMIPASKAGLVIGKGGETIKQLQERAGVKMVMIQDGSQNTGADKPLRITGDPYKVQQAKEMVLELIRD, the abundance fitness amounted to 0.04 ± 0.038.

Consider GNAVQEIMIPASKAGLVIGKGGETIKQLQERAGVKMVMIQDGPKNTGADKPLRITGDPYKVQQAKEMVLELIRD, for which the abundance fitness worked out at 0.038 ± 0.036.

GNAVQEIMIPASKAGLVIGKGGETIKQLQERAGVKMVMIQDGPANTGADKPLRITGDPYKVQQAKEMVLELIRD: the abundance fitness was -0.008 ± 0.032.
